Source: US20150299764A1, “IMMOBILISED CYCLIN-DEPENDENT KINASE 4 FUSION PROTEINS AND USES THEREOF” (UNIVERSITE LIBRE DE BRUXELLES, priority 2012, published 2015)

Legend:
[1] = test system: 48-kDa fragment (aa 773-928) of pRb; experiment: pRb kinase assay on MCF7 cell extract bound to streptavidin-coated sepharose beads; type: biochemical
Description: In order to verify if transgenes expressed in MCF7 cells after transduction with the vectors described in Example 8 could be immobilized on streptavidin-coated sepharose bead and were enzymatically active, the MCF7 cells expressing the luciferase or the cyclin D3/CDK4 fusion protein described in the Example 14 were cultivated in 10 cm Petri dishes with 10 ml DMEM medium supplemented with 5% serum, insulin 6 ng/ml, NEAA (Gibco) 0.1 mM, Sodium pyruvate (1 mM), Penicillin (50 U/ml) and Streptomycin (50 μg/ml). The cells were rendered quiescent by incubating them for three days in phenol-free DMEM without serum and insulin, but supplemented with biotin (0.1 mM), NEAA (0.1 mM, Gibco), Sodium pyruvate (1 mM), Penicillin (50 U/ml) and Streptomycin (50 μg/ml). During the last 24 hours, fulvestrant (10 nM) was added to the culture to block estrogen receptor action. Cells were stimulated to proliferate by adding 5% serum, 6 ng/ml insulin and 100 nM β-estradiol in the culture medium for 16 hours in the continuous presence of biotin (0.1 mM). At the end of the culture, cells were washed with PBS and lysed on ice in 1 ml NP-40 lysis buffer as described in Example 10. The homogenized (glass/glass) cellular lysate was sonicated 3 times and stored at −20° C. Equal amounts of protein from the defrozen lysate were then incubated for 3 h at 4° C. under slight shaking with 5 μl of streptavidin-coated sepharose beads which had been prewashed three times with NP-40 lysis buffer without inhibitors. After 3 h, beads bound with transgene were washed three times with cold NP-40 lysis buffer without inhibitors before enzymatic activities were measured.
(§1) The pRb kinase assay was performed on the cellular extract bound to the streptavidin-coated sepharose beads as described previously (Coulonval et al., supra). […] Proteins were resolved by SDS-PAGE and transferred on PVDF membranes (Perkin Elmer) before the phosphorylation on T826 of the pRb fragment was detected using the phospho-specific anti-pRb (T826) antibody (Thermo Fisher). […]

[2] = test system: 48-kDa fragment (amino acid 773-928) of pRb; experiment: pRb kinase assay on HEK293T cell extract bound to streptavidin-coated sepharose beads; type: biochemical; conditions: transiently transfected HEK293T cells, P-Rb T826 immunoblot
Description: In order to verify if the transgenes expressed in HEK293T cells after transient transfection could be immobilized on streptavidin-coated sepharose bead and were enzymatically active, HEK293T cells were cultivated and transfected with the indicated plasmids as described in Example 12.
After transfection, cells were washed with PBS and lysed on ice in 1 ml NP-40 lysis buffer as described in Example 11. The homogenized (glass/glass) cellular lysate was sonicated 3 times and stored at −20° C. Equal amount of protein from the defrozen lysates were then incubated for 3 h at 4° C. under slight shaking with 5 μl of streptavidin-coated sepharose beads (GE Healthcare) which had been prewashed three times with NP-40 lysis buffer without inhibitors. After 3 h, beads bound with transgene are washed three times with cold NP-40 lysis buffer without inhibitors before enzymatic activities are measured.
as §1, with “2003, Exp. Cell Res., 291, 135-149).” for “supra).”, “phosphor-specific pRb” for “phospho-specific anti-pRb”
The pRb kinase assay was performed on the cellular extract bound to the streptavidin-coated sepharose beads (GE Healthcare) as described previously (Coulonval et al., 2003, Exp. Cell Res., 291, 135-149). […] Proteins were resolved by SDS-PAGE and transferred on low fluorescence PVDF membranes (Millipore) before the phosphorylation on T826 of the pRb fragment was detected using a phospho-specific rabbit anti-pRb (T826) antibody (Epitomics). Total GST-Rb load of the membranes was quantitated using the mouse anti-GST antibody (Pierce). […]

| Molecule | Rb kinase activity of the immobilized fusion protein ([1]; 16 h after serum/insulin/β-estradiol stimulation of MCF7 cells (FIG. 11B, lane 8)) | Rb kinase activity of the immobilized fusion protein ([1]; quiescent MCF7 cells (FIG. 11B, lane 7)) | Rb kinase activity of the immobilized fusion protein [2] | Rb kinase activity of the immobilized fusion protein ([2]; listed as cyclin D3/CDK4) | Rb kinase activity of the immobilized fusion protein ([1]; stable MCF7 populations cultivated with 5% serum and insulin (FIG. 16)) |
| --- | --- | --- | --- | --- | --- |
| D3L2K4: cyclin D3 and CDK4 connected by the linker L2, SEQ ID NO. 10 (protein) MELLCCEGTRHAPRAGPDPRLLGDQRVLQSLLRLEERYVPRASYFQCVQREIKPHMRKMLAYWMLEVCEEQRCEEEVFPLAMNYLDRYLSCVPTRKAQLQLLGAVCMLLASKLRETTPLTIEKLCIYTDHAVSPRQLRDWEVLVLGKLKWDLAAVIAHDFLAFILHRLSLPRDRQALVKKHAQTFLALCATDYTFAMYPPSMIATGSIGAAVQGLGACSMSGDELTELLAGITGTEVDCLRACQEQIEAALRESLREASQTSSSPAPKAPRGSSSQGPSQTSTPTDVTAIHLASKGGGGSLEVLFQPSRMATSRYEPVAEIGVGAYGTVYKARDPHSGHFVALKSVRVPNGGGGGGGLPISTVREVALLRRLEAFEHPNVVRLMDVCATSRTDREIKVTLVFEHVDQDLRTYLDKAPPPGLPAETIKDLMRQFLRGLDFLHANCIVHRDLKPENILVTSGGTVKLADFGLARIYSYQMALTPVVVTLWYRAPEVLLQSTYATPVDMWSVGCIFAEMFRRKPLFCGNSEADQLGKIFDLIGLPPEDDWPRDVSLPRGAFPPRGPRPVQSVVPEMEESGAQLLLEMLTFNPHKRISAFRALQHSYLHKDEGNPE | strongly enhanced | detectable | No difference in Rb-kinase activity | active |  |
| D3L3K4: cyclin D3 and CDK4 connected by the Prescission-cleavable linker L3, SEQ ID NO. 79 (protein) MELLCCEGTRHAPRAGPDPRLLGDQRVLQSLLRLEERYVPRASYFQCVQREIKPHMRKMLAYWMLEVCEEQRCEEEVFPLAMNYLDRYLSCVPTRKAQLQLLGAVCMLLASKLRETTPLTIEKLCIYTDHAVSPRQLRDWEVLVLGKLKWDLAAVIAHDFLAFILHRLSLPRDRQALVKKHAQTFLALCATDYTFAMYPPSMIATGSIGAAVQGLGACSMSGDELTELLAGITGTEVDCLRACQEQIEAALRESLREASQTSSSPAPKAPRGSSSQGPSQTSTPTDVTAIHLASKGGGGSLEVLFQPSRMATSRYEPVAEIGVGAYGTVYKARDPHSGHFVALKSVRVPNGGGGGGGLPISTVREVALLRRLEAFEHPNVVRLMDVCATSRTDREIKVTLVFEHVDQDLRTYLDKAPPPGLPAETIKDLMRQFLRGLDFLHANCIVHRDLKPENILVTSGGTVKLADFGLARIYSYQMALTPVVVTLWYRAPEVLLQSTYATPVDMWSVGCIFAEMFRRKPLFCGNSEADQLGKIFDLIGLPPEDDWPRDVSLPRGAFPPRGPRPVQSVVPEMEESGAQLLLEMLTFNPHKRISAFRALQHSYLHKDEGNPE |  |  | No difference in Rb-kinase activity |  | only detected |
